Source: US20240325557A1, “TREATMENT OF CANCER” (INNATE PHARMA, priority 2020, published 2024)
Changes are numbered by the printed parent chain.

B1: Enfortumab (ASG-22ME) (antibody, from a related filing, V domains shown)
VH: EVQLVESGGGLVQPGGSLRLSCAASGFTFSSYNMNWVRQAPGKGLEWVSYISSSSSTIYYADSVKGRFTISRDNAKNSLSLQMNSLRDEDTAVYYCARAYYYGMDVWGQGTTVTVSS
VL: DIQMTQSPSSVSASVGDRVTITCRASQGISGWLAWYQQKPGKAPKFLIYAASTLQSGVPSRFSGSGSGTDFTLTISSLQPEDFATYYCQQANSFPPTFGGGTKVEIKR
B2: antibody 5E7 (antibody, human IgG1, V domains shown)
VH: QVQLQQPGAELVKPGASVKLSCKASGYIFTSYWMHWVKQRPGQGLEWIGEIDPSDSYTNYNQKFKGKATLTLDKSSSTTYMQLSSLTSEDSAVYYCVRGYGNYGDYWGQGTTLTVSS
VL: DVVMTQAAFSNPVTLGTSASISCRSSKSLLHSNGITYLYWYLQKPGQSPQLLIYQMSNLASGVPDRFSSSGSGTDFTLRISRVEAEDVGVYYCAQNLELPWTFGGGTKLEIK
B3: antibody 10B12 (antibody, human IgG1, V domains shown)
VH: B2 VH with I28T, L72V, T79A
VL: B2 VL with V2I

Tests used:
[1] = target: monomeric huNectin4-his-BirA protein (human) (UniProt Q96NY8); assay: SPR (Biacore T200), antibody captured on Protein A, monomeric huNectin4-his-BirA injected
[2] = target: Rat Nectin-4 on CHO cells (rat); assay: flow cytometry titration on CHO cells expressing rat Nectin-4, median MFI (PE)

Binder	Kd [1] [nM]	koff [1] [s⁻¹]	kon [1] [M⁻¹ s⁻¹]	EC50 (read off the curve) [2] [µg/mL]
B1	13.7	0.0047	340000	–
B2	–	–	–	0.1
B3	–	–	–	0.1
